Substitutions are numbered along the chain they refer to. Values belong to the binder of their own block, whether it stands above or below them.
Legend:
[1] = target: T1, immunodominant region related peptide APDTRPAPG (Homo sapiens MUC1 repeat, synthetic); test: other fluorescence titration; fluorescence quenching in PBS, excitation 290 nm, emission 345 nm; C595 0.12 uM or C595 scFv 0.27 uM, 2.5 ul aliquots of 60 uM peptide added until maximum quenching; Scatchard analysis; details: both partners purified
T1 construct: stretch of the MUC1 20 amino acid repeat; Free in solution for fluorescence quenching; source: synthetic peptide
T1 chain: APDTRPAPG

p(1-25) peptide = target: T2, p(1-25) peptide (Homo sapiens MUC1 repeat, synthetic); test: as above; details: both partners purified
T2 construct: 25 residues of the MUC1 tandem repeat region; source: synthetic peptide
T2 sequence (peptide, as listed by the source): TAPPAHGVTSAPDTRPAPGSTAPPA

60 mer MUC1 peptide = target: T3, 60 mer MUC1 peptide (Homo sapiens MUC1 repeat, synthetic, UniProt P15941); test: as above; details: both partners purified
T3 construct: source: synthetic peptide, provided by Dr J Darrell Fontenot

105 mer MUC1 peptide = target: T4, 105 mer MUC1 peptide (Homo sapiens MUC1 repeat, synthetic, UniProt P15941); test: as above; details: both partners purified
T4 construct: source: synthetic peptide, provided by Dr J Darrell Fontenot

[2] = target: T5, MUC1 antigen on human breast and bladder carcinoma tissue sections (Homo sapiens, UniProt P15941); test: immunostaining of cells or tissue; 3 um paraffin sections of breast and transitional cell bladder tumours, no antigen retrieval; primary antibody 1 h; scFv detected with mouse anti-E-Tag (1:50); StreptABC/HRP, diaminobenzidine; details: one partner purified
T5 construct: MUC1 mucin in tumour tissue; also called breast tumour tissue sections; sections from bladder carcinomas; source: endogenous, archival paraffin sections of breast and transitional cell bladder tumours
T5 sequence (P15941 24-1255): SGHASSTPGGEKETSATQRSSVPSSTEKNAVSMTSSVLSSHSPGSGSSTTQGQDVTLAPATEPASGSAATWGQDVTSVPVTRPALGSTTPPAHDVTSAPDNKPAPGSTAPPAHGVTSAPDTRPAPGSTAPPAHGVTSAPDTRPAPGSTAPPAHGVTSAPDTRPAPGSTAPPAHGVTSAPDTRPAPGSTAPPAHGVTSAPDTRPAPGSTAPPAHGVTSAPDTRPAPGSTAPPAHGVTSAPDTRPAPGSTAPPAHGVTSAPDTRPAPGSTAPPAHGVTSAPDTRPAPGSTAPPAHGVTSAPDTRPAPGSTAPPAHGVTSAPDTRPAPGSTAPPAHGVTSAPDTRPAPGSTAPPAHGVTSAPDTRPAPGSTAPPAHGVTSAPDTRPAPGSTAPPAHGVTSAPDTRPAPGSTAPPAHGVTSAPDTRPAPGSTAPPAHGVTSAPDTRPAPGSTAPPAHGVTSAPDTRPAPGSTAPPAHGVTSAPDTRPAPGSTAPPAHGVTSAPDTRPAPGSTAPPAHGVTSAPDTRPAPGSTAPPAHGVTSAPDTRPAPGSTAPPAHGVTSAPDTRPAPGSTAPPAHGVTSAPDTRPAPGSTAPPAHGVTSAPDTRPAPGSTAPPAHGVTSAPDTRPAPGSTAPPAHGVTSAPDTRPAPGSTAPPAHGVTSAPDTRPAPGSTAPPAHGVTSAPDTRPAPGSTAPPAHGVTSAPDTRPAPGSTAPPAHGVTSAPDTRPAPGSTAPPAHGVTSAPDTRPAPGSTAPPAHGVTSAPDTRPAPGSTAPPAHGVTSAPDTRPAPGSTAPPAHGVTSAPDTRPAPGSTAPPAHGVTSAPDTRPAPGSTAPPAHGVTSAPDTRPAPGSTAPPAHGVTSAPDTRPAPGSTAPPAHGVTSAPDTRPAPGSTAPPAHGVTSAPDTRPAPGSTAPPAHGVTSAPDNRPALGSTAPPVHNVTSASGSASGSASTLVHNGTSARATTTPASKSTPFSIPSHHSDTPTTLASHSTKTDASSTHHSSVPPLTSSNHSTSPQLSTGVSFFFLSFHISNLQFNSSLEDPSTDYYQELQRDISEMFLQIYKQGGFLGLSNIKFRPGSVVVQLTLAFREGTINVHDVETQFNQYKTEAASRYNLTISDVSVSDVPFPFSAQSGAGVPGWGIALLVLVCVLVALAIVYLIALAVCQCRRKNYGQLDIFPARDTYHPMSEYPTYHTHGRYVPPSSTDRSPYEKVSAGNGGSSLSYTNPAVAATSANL

[3] = target: T1, immunodominant region related peptide …; test: peptide epitope affinity chromatography; filtered bacterial supernatant applied to Sepharose 4B conjugated to APDTRPAPG; washed with PBS, 0.02% sodium azide; bound scFv eluted with 3 M sodium thiocyanate; eluate analysed by SDS-PAGE and anti-E-Tag Western blot; details: one partner purified

- binding result [1]: binds
- binding result (p(1-25) peptide): binds
- binding result (60 mer MUC1 peptide): binds
- binding result (105 mer MUC1 peptide): binds
- binding result [2]: binds
B1: Monoclonal antibody C595 (antibody, V domains shown)
VH: EVQLVESGGGLVQPGGSLKLSCAASGFTFSSYGMSWVRQTPDKRLELVATINSNGGSTYYPDSVKGRFTISRDNAKNTLYLQMSSLKSEDTAMYYCARDRDGYDEGFDYWG
VL: QIVLTQSPAIMSASPGEKVTMTCSASSSVSYMHWYQQKSGTSPKRWIYDTSKLASGVPARFSGSGSGTSYSLTISSMEAEDAATYYCQQWSSNPPTFGGGTKLEIK
notes: mouse IgG3 heavy chain constant region; mouse kappa light chain constant region; IgG3, kappa light chain; it was used at stated concentrations in PBS; also called NCRC-48; source: hybridoma (spleen cells of a BALB/c mouse immunized against purified MUC1 urinary mucin)

- binding result (p(1-25) peptide): binds
- binding result (60 mer MUC1 peptide): binds
- binding result (105 mer MUC1 peptide): binds
- binding result [2]: binds
- binding result [3]: binds
B2: C595 scFv clone 31 (scFv, V domains shown)
VH: QVQLQESGGGLVQPGGSLKLSCAASGFTFSSYGMSWVRQTPDKRLELVATINSNGGSTYYPDSVKGRFTISRDNAKNTLYLQMSSLKSEDTAMYYCARDRDGYDEGFDYWGPGTTVTVSS
VL: B1 VL with Q1D, V3E, A9S, G100R, I105L
notes: it is not written as a part; About 30 kDa on SDS-PAGE; also called recombinant C595 scFv; the scFv; source: E. coli HB2151 (pCANTAB 5E, IPTG), bacterial culture supernatant; not shown: E-Tag, C-terminal, kept

Source: article PMC2228010, “Production and characterization of a recombinant anti-MUC1 scFv reactive with human carcinomas” (British Journal of Cancer, 1997)
